{"source": "patent US20230023414A1", "about": "“METHODS AND DEVICES FOR TREATING A DISEASE WITH BIOTHERAPEUTICS” (PROGENITY, INC., priority 2018, published 2023)", "key": {"[1]": {"details": "cited from earlier work; for Baseline dose: Bioavail.: dose info for non-approved agents from clinical trial information"}, "[2]": {"details": "pig, in vivo; for (AUC)T0-T240 h ± SEM / Tmax: 1.2 mg"}, "[3]": {"details": "cited from earlier work"}, "[4]": {"test": "Pharmacokinetics (blood insulin) of regular human insulin (NOVOLIN R) after subcutaneous or intra-jejunal jet delivery in swine", "assay_type": "in vivo, Yorkshire female swine", "details": "for Cmax / Tmax: blood insulin", "procedure": "A total of 18 Yorkshire female swine in good health and weighing 60-70 kg each were included in this study. Swine were divided into two groups with 9 animals per group. […] A sham surgical laparotomy was performed. […] The jet delivery device was configured with the single nozzle in an axial orientation.\nSwine were divided into two groups with 9 animals per group. […] In all 18 animals, a laparotomy procedure was performed to expose the abdominal cavity. Animals remained under anesthesia during the entire procedure for the PK/PD study.\nFor the laparotomy in group 02, a small segment of the jejunal mucosa and serosa was exposed by midline laparotomy and the jet delivery device was inserted through antimesenteric incision.\n(§1) Blood samples were kept on wet ice until centrifugation and separation of plasma. […] Glucose was monitored every five (5) minutes during the study by portable glucose analyzer (StatStrip (SS) hospital glucose monitoring system (Nova Biomedical, Waltham, Mass.)). At each time point, approximate 0.1 mL of blood was drawn and immediately placed on a glucose monitoring test strip, and the whole blood glucose concentration was measured by the SS in triplicate.\nThe animals were anesthetized for the entire ECP."}, "blood glucose": {"system": "blood glucose", "test": "Euglycemic clamp procedure: blood glucose and dextrose infusion after NOVOLIN R SC or IJ in swine", "assay_type": "in vivo, Yorkshire female swine", "details": "for mean blood glucose level: euglycemic clamp, swine", "procedure": "A total of 18 Yorkshire female swine in good health and weighing 60-70 kg each were included in this study. Swine were divided into two groups with 9 animals per group. […] A sham surgical laparotomy was performed. […] The jet delivery device was configured with the single nozzle in an axial orientation. The device was held in place during the laparotomy insertion, and the nozzle outlet was directed to face the jejunal wall to direct the jet of the NOVOLIN® R to the GI tract.\nas §1\nA euglycemic clamp procedure (ECP) was employed to compare pharmacokinetics and pharmacodynamics of regular human Insulin (NOVOLIN® R) delivered subcutaneously (SC) in the neck versus intra-jejunally (IJ) by the jet delivery device in the small intestine. ECP was used to quantify the amount of glucose required to maintain normoglycemia after exogenous bolus of insulin. […] The animals were anesthetized for the entire ECP."}, "[5]": {"details": "IJ administration by jet delivery device, swine, Average"}, "[6]": {"details": "IJ administration by jet delivery device, swine, individual animals"}, "[7]": {"details": "SC administration, swine, Average"}, "[8]": {"details": "SC administration, swine, individual animals"}}, "note": "Several values for one entry are separate records, joined by “and”; a condition that tells them apart may be missing. Identical values can stand only once. Like-named read-outs stand apart in the source and are kept apart here. Marks after values point to notes of the source that are not given here."}
{"molecule": "somatropin", "values": [{"measurement": "Baseline dose: Bioavail.", "setting": "[1]; SC administration", "value": 80.5, "unit": "%"}]}
{"molecule": "certolizumab pegol", "values": [{"measurement": "Approved Dosing Info: Bio Avail", "setting": "[1]; SC administration", "value": 80, "unit": "%"}]}
{"molecule": "golimumab", "values": [{"measurement": "Approved Dosing Info: Bio Avail", "setting": "[1]; SC administration", "value": 51, "unit": "%"}]}
{"molecule": "ustekinumab", "values": [{"measurement": "Approved Dosing Info: Bio Avail", "setting": "[1]; SC administration", "value": 78, "unit": "%"}]}
{"molecule": "secukinumab", "values": [{"measurement": "Approved Dosing Info: Bio Avail", "setting": "[1]; SC administration", "value": 73, "unit": "%"}]}
{"molecule": "CC[C@H](C)[C@H](NC(=O)[C@H](CCC(=O)O)NC(=O)[C@H](CO)NC(=O)[C@@H](NC(=O)[C@@H](N)CO)C(C)C)C(=O)N[C@@H](CCC(N)=O)C(=O)N[C@@H](CC(C)C)C(=O)N[C@@H](CCSC)C(=O)N[C@@H](Cc1cnc[nH]1)C(=O)N[C@@H](CC(N)=O)C(=O)N[C@@H](CC(C)C)C(=O)NCC(=O)N[C@@H](CCCCN)C(=O)N[C@@H](Cc1cnc[nH]1)C(=O)N[C@@H](CC(C)C)C(=O)N[C@@H](CC(N)=O)C(=O)N[C@@H](CO)C(=O)N[C@@H](CCSC)C(=O)N[C@@H](CCC(=O)O)C(=O)N[C@@H](CCCN=C(N)N)C(=O)N[C@H](C(=O)N[C@@H](CCC(=O)O)C(=O)N[C@@H](Cc1c[nH]c2ccccc12)C(=O)N[C@@H](CC(C)C)C(=O)N[C@@H](CCCN=C(N)N)C(=O)N[C@@H](CCCCN)C(=O)N[C@@H](CCCCN)C(=O)N[C@@H](CC(C)C)C(=O)N[C@@H](CCC(N)=O)C(=O)N[C@@H](CC(=O)O)C(=O)N[C@H](C(=O)N[C@@H](Cc1cnc[nH]1)C(=O)N[C@@H](CC(N)=O)C(=O)N[C@@H](Cc1ccccc1)C(=O)O)C(C)C)C(C)C", "note": "[teriparatide]", "values": [{"measurement": "Approved Dosing Info: Bio Avail", "setting": "[1]; SC administration", "value": 95, "unit": "%"}]}
{"molecule": "natalizumab", "values": [{"measurement": "Approved Dosing Info: Bio Avail", "setting": "[1]; IV administration", "value": 100, "unit": "%"}]}
{"molecule": "denosumab", "values": [{"measurement": "Approved Dosing Info: Bio Avail", "setting": "[1]; SC administration", "value": 61, "unit": "%"}]}
{"molecule": "Dulaglutide: long-acting GLP-1 receptor agonist, about 63 kDa; GLP-1 analogue linked to modified human IgG4 Fc; TRULICITY solution 3 mg/mL", "values": [{"measurement": "Approved Dosing Info: Bio Avail", "setting": "[1]; SC administration", "value": 65, "unit": "%"}, {"measurement": "AUCID (±SEM)", "setting": "[2]", "value": "3890.00 ± 94.73", "unit": "ng·h/mL"}, {"measurement": "Bioavailability relative to SC", "setting": "[2]", "value": "49.11 ± 0.08", "unit": "% ^a"}, {"measurement": "(AUC)T0-T240 h ± SEM", "setting": "[2]", "value": "4355.86 ± 1094.57 ^a ng · hr/mL"}, {"measurement": "Tmax", "setting": "[2]", "value": 8, "unit": "h"}, {"measurement": "Bioavailability relative to IV", "setting": "[2]; iv", "value": 100, "unit": "%"}, {"measurement": "(AUC)T0-T240 h ± SEM", "setting": "[2]; iv", "value": "16429.33 ± 600.93", "unit": "ng·h/mL"}, {"measurement": "Tmax", "setting": "[2]; iv", "value": 1, "unit": "h"}, {"measurement": "Bioavailability relative to SC", "setting": "[2]; sc", "value": 100, "unit": "%"}, {"measurement": "(AUC)T0-T240 h ± SEM", "setting": "[2]; sc", "value": "8869 ± 887.33", "unit": "ng·h/mL"}, {"measurement": "Tmax", "setting": "[2]; sc", "value": 6, "unit": "h"}]}
{"molecule": "sargramostim", "values": [{"measurement": "Approved Dosing Info: Bio Avail", "setting": "[1]; IV administration", "value": 100, "unit": "%"}]}
{"molecule": "alirocumab", "values": [{"measurement": "Approved Dosing Info: Bio Avail", "setting": "[1]; SC administration", "value": 85, "unit": "%"}]}
{"molecule": "dalteparin", "values": [{"measurement": "bioavailability by SC injection", "setting": "[1]; SC injection", "value": "approximately 87%"}, {"measurement": "half-life", "setting": "[1]; in vivo", "value": "3 to 5", "unit": "h"}, {"measurement": "stability at room temperature", "setting": "[3]", "value": "stable at room temperature"}]}
{"molecule": "tocilizumab", "values": [{"measurement": "Approved Dosing Info: Bio Avail", "setting": "[1]; SC administration", "value": 80, "unit": "%"}]}
{"molecule": "etanercept", "values": [{"measurement": "Approved Dosing Info: Bio Avail", "setting": "[1]; SC administration", "value": 58, "unit": "%"}]}
{"molecule": "Novolin® R: regular human insulin (recombinant), aqueous solution 100 units/mL with glycerol, metacresol, zinc chloride, pH 7.4", "values": [{"measurement": "blood insulin level", "setting": "[4]; animal 18P18, SC administration group", "value": "significantly higher than the rest of the animals in the group"}, {"measurement": "Cmax", "setting": "[4]; [5]", "value": 77.40, "unit": "uIU/mL"}, {"measurement": "Tmax", "setting": "[4]; [5]", "value": 55.63, "unit": "min"}, {"measurement": "Cmax", "setting": "[4]; [6]", "value": "40.93 uIU/mL and 96.77 uIU/mL and 5.03 uIU/mL and 7.96 uIU/mL and 48.77 uIU/mL and 85.38 uIU/mL and 207.96 uIU/mL and 126.39 uIU/mL"}, {"measurement": "Tmax", "setting": "[4]; [6]", "value": "20 min and 50 min and 90 min (2×) and 40 min (3×)"}, {"measurement": "Cmax", "setting": "[4]; [7]", "value": 202.94, "unit": "uIU/mL"}, {"measurement": "Tmax", "setting": "[4]; [7]", "value": 87.14, "unit": "min"}, {"measurement": "Cmax", "setting": "[4]; [8]", "value": "451.00 uIU/mL and 60.74 uIU/mL and 354.00 uIU/mL and 356.60 uIU/mL and 65.71 uIU/mL and 59.18 uIU/mL and 73.34 uIU/mL"}, {"measurement": "Tmax", "setting": "[4]; [8]", "value": "50 min (2×) and 180 min and 105 min and 30 min and 120 min"}, {"measurement": "time to maximum plasma concentration (Tmax)", "setting": "[4]; jejunum administration group", "value": 0.9272, "unit": "h"}, {"measurement": "time to maximum plasma concentration (Tmax)", "setting": "[4]; subcutaneous administration group", "value": 1.452, "unit": "h"}, {"measurement": "maximum plasma concentration Cmax, SC group versus IJ group", "setting": "[4]; swine", "value": "higher than that of the IJ administration group"}, {"measurement": "AUC of blood insulin, SC group versus IJ group", "setting": "[4]; swine, AUC0-420 min", "value": "higher than that of the IJ administration group"}, {"measurement": "mean dextrose infusion rate, IJ versus SC group", "setting": "blood glucose; 75 minutes to 420 minutes post-administration", "value": "higher in the SC administration group"}, {"measurement": "mean blood glucose level", "setting": "blood glucose; IJ administration group (jet delivery device)", "value": 89.6, "unit": "mg/dL"}, {"measurement": "mean blood glucose level", "setting": "blood glucose; SC administration group", "value": 83.5, "unit": "mg/dL"}, {"measurement": "mean dextrose infusion rate, IJ versus SC group", "setting": "blood glucose; first 70 minutes after administration", "value": "higher in the IJ administration group"}]}
{"molecule": "CC[C@H](C)[C@H](NC(=O)[C@H](Cc1ccccc1)NC(=O)[C@H](CCC(=O)O)NC(=O)[C@H](CCCCNC(=O)COCCOCCNC(=O)COCCOCCNC(=O)CC[C@H](NC(=O)CCCCCCCCCCCCCCCCC(=O)O)C(=O)O)NC(=O)[C@H](C)NC(=O)[C@H](C)NC(=O)[C@H](CCC(N)=O)NC(=O)CNC(=O)[C@H](CCC(=O)O)NC(=O)[C@H](CC(C)C)NC(=O)[C@H](Cc1ccc(O)cc1)NC(=O)[C@H](CO)NC(=O)[C@H](CO)NC(=O)[C@@H](NC(=O)[C@H](CC(=O)O)NC(=O)[C@H](CO)NC(=O)[C@@H](NC(=O)[C@H](Cc1ccccc1)NC(=O)[C@@H](NC(=O)CNC(=O)[C@H](CCC(=O)O)NC(=O)C(C)(C)NC(=O)[C@@H](N)Cc1cnc[nH]1)[C@@H](C)O)[C@@H](C)O)C(C)C)C(=O)N[C@@H](C)C(=O)N[C@@H](Cc1c[nH]c2ccccc12)C(=O)N[C@@H](CC(C)C)C(=O)N[C@H](C(=O)N[C@@H](CCCNC(=N)N)C(=O)NCC(=O)N[C@@H](CCCNC(=N)N)C(=O)NCC(=O)O)C(C)C", "note": "[Semaglutide]", "values": [{"measurement": "Approved Dosing Info: Bio Avail", "setting": "[1]; SC administration", "value": 89, "unit": "%"}]}
{"molecule": "glucagon (SC)", "values": [{"measurement": "Baseline dose: Bioavail.", "setting": "[1]; SC administration", "value": 100.0, "unit": "%"}]}
{"molecule": "vedolizumab", "values": [{"measurement": "Approved Dosing Info: Bio Avail", "setting": "[1]; IV administration", "value": 100, "unit": "%"}]}
